Experimental data taken from US20140193401A1.

Tests used:
[1] = molecular target: PTx-S1-220 R79A (Bordetella pertussis) (UniProt P04977)
[2] = molecular target: PTx-S1-220 R79A (Bordetella pertussis) (UniProt P04977); assay: ELISA, hu1B7 as primary antibody; EC50 as percent of the PTx reference
[3] = molecular target: PTx-S1E (residues 1-220, D34E, S162P, I198M) (Bordetella pertussis) (UniProt Q7WDU8); assay: SPR (BIAcore 3000), mAb 1B7 immobilised on CM5 chip, toxin injected
[4] = molecular target: pertussis toxin holotoxin (Bordetella pertussis) (UniProt P04977); assay: competition ELISA (Friguet), 5 nM antibody with PT in solution, coated PT
[5] = molecular target: pertussis toxin holotoxin (Bordetella pertussis) (UniProt P04977); assay: cell-based or functional assay

## hu1B7 scAb (humanized 1B7 single-chain Fv with C-terminal human kappa constant domain) (scFv)
[1]
  % EC50 PTx: 1%
[2]
  % EC50 PTX: 1%

## murine monoclonal antibody 1B7
[3]
  koff: 0.0018 s⁻¹

## murine monoclonal antibody 11E6
[4]
  Kd: 20 nM
[5]
  In Vitro Neutralization (nM), minimum protective concentration, CHO clustering assay: 5.2 nM
